# Measurements published in US20210340263A1 (WISTAR INSTITUTE, published 2021).
# T1: murine FSHR (murine, UniProt P35378 18-692)
# T1 construct: whole, on cells; also called mouse FSHR
# T1 sequence (looked up): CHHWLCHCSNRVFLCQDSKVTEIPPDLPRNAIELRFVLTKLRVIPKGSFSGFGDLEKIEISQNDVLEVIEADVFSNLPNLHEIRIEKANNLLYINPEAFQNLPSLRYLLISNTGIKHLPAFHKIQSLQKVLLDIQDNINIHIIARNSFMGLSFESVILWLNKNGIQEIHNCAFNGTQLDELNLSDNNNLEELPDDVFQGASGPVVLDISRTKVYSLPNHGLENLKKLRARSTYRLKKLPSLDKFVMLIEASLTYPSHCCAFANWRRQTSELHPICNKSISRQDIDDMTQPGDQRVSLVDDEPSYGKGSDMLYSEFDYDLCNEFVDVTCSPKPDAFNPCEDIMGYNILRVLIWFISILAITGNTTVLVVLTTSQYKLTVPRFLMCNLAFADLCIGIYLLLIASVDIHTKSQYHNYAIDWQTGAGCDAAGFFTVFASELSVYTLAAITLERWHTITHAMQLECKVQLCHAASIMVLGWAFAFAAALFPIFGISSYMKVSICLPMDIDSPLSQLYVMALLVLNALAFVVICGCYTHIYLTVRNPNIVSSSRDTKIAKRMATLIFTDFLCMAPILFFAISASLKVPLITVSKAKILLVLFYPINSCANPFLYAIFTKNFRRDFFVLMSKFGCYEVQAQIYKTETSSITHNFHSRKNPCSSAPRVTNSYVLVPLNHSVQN
# B1: 9H11 monoclonal antibody (murine, original) (antibody, mouse IgG2a, kappa, V domains shown)
# VH: QVNLKESGPGILQPSQTLNLTCSFSGFSLSTSGMGVGWIRQPSGKGLDWLAHIWWDDDKRYNPALKSRLTISKDASSNQVFLKIASVVTADTATYYCVQINYGNYRFDNWGHGTTLTVSS
# VL: not shown
# notes: Mouse hybridoma antibody; also called murine monoclonal antibody 9H11; 9H11 antibody
# Molecular target: T1, murine FSHR
# Assay: immunofluorescence, 293T cells transiently transduced with murine FSHR
# From the text: The use of 9H11 for staining FSHR in immunocytochemistry through immunofluorescence was validated.
binder,measurement,value
B1,binding result,binds
